{
  "source": "patent US6040149A",
  "about": "“Assay for identifying agents which act on the ceramide-activated protein kinase, kinase suppressor of ras, and methods of using said agents” (priority 1997, dated 2000)",
  "key": {"Raf-1": {"system": "Raf-1", "assay": "Kinase activity of immunoprecipitated Raf-1 toward MEK1 after HL-60 cell stimulation", "format": "cell-based, human (HL-60 cells)", "experimental": "Recovery of MEK1 was monitored by western blot (Bottom Panel). Identical results were obtained with cells stimulated for 5 min with TNF.\nRecovery of MEK1 was monitored by western blot (Bottom Panel).\nThese studies indicate that Raf-1 is a component of the sphingomyelin pathway mediating TNF action.\nMEK1 autophosphorylation was for 45 min. An autoradiogram of MEK1 phosphorylation (top panel) and recovery of MEK1 protein by western blot (bottom panel) are shown. For western blot, proteins separated by SDS-PAGE were electrotransferred to an Immobilon PVDF membrane at 12 volts overnight at 4° C. Membranes were then blocked with 2% BSA in TBS [20 mM Tris, pH 7.6, 137 mM NaCl] for 1 hr and washed with TBST (TBS containing 0.2% Tween-20)."}, "KSR": {"biological_target": "T1, KSR (Mus musculus, UniProt Q61097)", "T1 sequence (Q61097 1-873)": "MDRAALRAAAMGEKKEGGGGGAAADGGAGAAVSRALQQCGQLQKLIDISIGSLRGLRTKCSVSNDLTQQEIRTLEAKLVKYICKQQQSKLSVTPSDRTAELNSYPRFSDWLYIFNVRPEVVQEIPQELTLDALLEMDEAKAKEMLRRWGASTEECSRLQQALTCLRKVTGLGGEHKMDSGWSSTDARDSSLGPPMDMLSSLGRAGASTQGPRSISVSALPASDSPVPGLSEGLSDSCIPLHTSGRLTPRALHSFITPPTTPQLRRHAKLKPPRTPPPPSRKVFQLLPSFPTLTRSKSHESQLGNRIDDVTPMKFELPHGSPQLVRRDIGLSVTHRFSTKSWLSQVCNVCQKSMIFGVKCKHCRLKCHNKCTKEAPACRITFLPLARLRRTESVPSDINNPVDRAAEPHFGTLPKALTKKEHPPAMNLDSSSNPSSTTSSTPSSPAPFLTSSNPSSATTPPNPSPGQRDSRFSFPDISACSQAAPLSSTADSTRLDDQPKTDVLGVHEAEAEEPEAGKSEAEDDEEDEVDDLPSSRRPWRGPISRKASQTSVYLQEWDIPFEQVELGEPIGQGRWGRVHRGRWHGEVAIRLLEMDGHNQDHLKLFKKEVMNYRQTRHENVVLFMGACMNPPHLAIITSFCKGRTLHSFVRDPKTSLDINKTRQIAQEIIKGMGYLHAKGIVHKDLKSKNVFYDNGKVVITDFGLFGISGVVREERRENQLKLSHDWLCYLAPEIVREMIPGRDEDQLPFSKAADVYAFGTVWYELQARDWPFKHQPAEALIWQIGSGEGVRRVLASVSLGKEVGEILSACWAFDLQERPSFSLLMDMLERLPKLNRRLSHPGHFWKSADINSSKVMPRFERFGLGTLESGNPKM", "assay": "KSR activity toward Raf-1 peptides in vitro", "format": "biochemical, mouse (KSR immunoprecipitated from COS-7 cells)", "set-up": "Raf-1 peptides as substrate", "outline": "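Flag-tagged KSR immunoprecipitated from COS-7 lysate, incubated with 0.3 mM Raf-1 TTLP peptide, 10 mM MnCl2, 5 μM ATP plus [γ-32P]ATP at 22 °C, with 30 nM ceramide or other lipids; P81 filter binding and Cerenkov counting, AALP-peptide background subtracted.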"}, "[1]": {"system": "ceramide-activated protein kinase", "conditions": "for membrane-bound kinase activity, fold increase: TNF-α 30 nM"}},
  "note": "Like-named read-outs stand apart in the source and are kept apart here.",
  "data": [
    {"compound": "CCCCCCCCCCCCCC(=O)O[C@@H]1[C@@H](C)[C@@]2(O)[C@@H](C=C(CO)C[C@]3(O)C(=O)C(C)=C[C@@H]23)[C@@H]2C(C)(C)[C@]12OC(C)=O", "note": "[TPA, 12-0-tetradecanoylphorbol-13-acetate]", "values": [
      {"measurement": "increase of Raf-1 activity", "setting": "Raf-1; TPA 100 ng/ml, 10 min, maximum", "result": "4 fold of control"},
      {"measurement": "effect on activation of KSR towards Raf-peptide", "setting": "KSR; 30 nM", "result": "no effect"}
    ]},
    {"compound": "CCCCCCCCCCCCC/C=C/[C@@H](O)[C@@H](N)CO", "note": "[sphingosine]", "values": [
      {"measurement": "activation of KSR", "setting": "KSR", "result": "fail to activate KSR"},
      {"measurement": "effect on kinase activity in membranes of stimulated HL-60 cells", "setting": "[1]; cholera toxin 10 nM, retinoic acid 0.5 μM, butyrate 0.5 mM", "result": "similarly as effective as C8-cer"}
    ]},
    {"compound": "TNF-α", "values": [
      {"measurement": "kinase activity of Raf-1 toward MEK1", "setting": "Raf-1; HL-60 cells treated with TNF or ceramide analogs", "result": "10-20 fold"},
      {"measurement": "kinase activity, fold of control", "setting": "[1]; 3 pM TNF-α, 60 minutes", "result": "1.1 fold of control"},
      {"measurement": "maximal kinase activity, fold of control", "setting": "[1]; 30 nM TNF-α, 60 minutes", "result": "1.8 fold of control"},
      {"measurement": "ED50 for kinase activity", "setting": "[1]; 60 minutes of stimulation", "result": "≈ 200 pM"},
      {"measurement": "membrane-bound kinase activity, fold increase", "setting": "[1]; 5 minutes", "result": 1.5, "unit": "fold"},
      {"measurement": "membrane-bound kinase activity, fold increase", "setting": "[1]; 2 hours", "result": 2.2, "unit": "fold"},
      {"measurement": "membrane-bound kinase activity, fold increase", "setting": "[1]; 2 hours, listed as TNF", "result": 2, "unit": "fold"}
    ]}
  ]
}
